Data from PMC9170038.

B1: Eterna 6457817 (Inverted Small Loop Same State NG 3) (ssRNA)
RNA: GCGUAAUAGGUGUAGCUAGUCGUUCAAGAAGGGUGAAGAACAUGAGGAUCACCCAUGUGGUCUAUACAGGAUAUUGAUAUACGC
B2: Eterna 7747481 (Same State - Arginine B) (ssRNA)
RNA: GCCGUAGAUUGAAGGAGCGACAUAAACGAUGUUCUGGUAGUGAUGUUACCUUAGCAGGCAUGUCAGGUAGGUCGCAAUCUACGGC
B3: Eterna 7730944 (Same State - Tryptophan A) (ssRNA)
RNA: UAAAACGCUUGAAUAACAAGCGAAAAUUCGCGAGGACCGGUACGGCCGCCACUCGCUAACUGCGAGUGAUGUUCGAUAAUAAAAU
B4: Eterna 5956827 (Exclusion NG 2) (ssRNA)
RNA: UUUGUUUUGCAAGGAUAUGUUUAAUUUUAGUUUCCUUACACAUGAGGAUCACCCAUGUUAUACUUACAGAAGGUGCGUAAUUUU
B5: Eterna 7724662 (Same State - FMN B) (ssRNA)
RNA: GUAUCGCUAGGAGGAUAUUUCAAAUAACAAAUAAAUGGUUAUACGGAGUGAUGUUCCGAUUUACGGAAAGAAGGCCUAGUGAUAC
B6: Eterna 7672552 (Same State - Tryptophan A) (ssRNA)
RNA: UAAGAAUAAGUAGCAGUGAUGUUGCUACUACGAGGACCGGUACGGCCGCCACUCGAGUCCUCGAAACAUCACUGAACGAGGAAUA
B7: Eterna 7733368 (Same State - Tryptophan B) (ssRNA)
RNA: GGGUACAUCGCGGCCGCCACUUAUGUAAAUACAUGAGGAUCACCCAUGUCGAUGGAGACAUCGGUAAGGACCGGGUGAUGUACCG
B8: Eterna 13224 (Sensor for hsa-mir-208a) (ssRNA)
RNA: ACCCAAAGUAUAUGGGAACAAGCUUUUUAACAUGAGGAUCACCCAUGUGCUCGUCUUAUAAGCAGUCGAAAGACUGC
B9: Eterna 7612216 (Same State - Tryptophan B) (ssRNA)
RNA: GCUAGGUCAUCGGCCGCCACUAACGACGGUUCCAACAUGAGGAUCACCCAUGUGCCACAUGCGCAUAGGACCGGGAUGACCUAGC
B10: Eterna 6002686 (Brourd's mod of Exclusion 4) (ssRNA)
RNA: UAACAAAUUGUCAGGAUAUCAGUCCCGGCCCAGAUUGAGAAGGGACAUGAGGAUCACCCAUGUAUGAUUCUCAG
B11: Eterna 7727988 (Exclusion - Theophylline B) (ssRNA)
RNA: GGGAACUCUUACGAUACCAGCCGGAGUGAUGUUCCGCGCUUGGACGUAGUAACCCGCACCGGCCCUUGGCAGCGUGGAUCUUAUA
B12: Eterna 7691696 (Same State - Theophylline B) (ssRNA)
RNA: UGUCAUUGGUCUGAUACCAGAAGAUAAUCUGGAGUGAUGUUCCAAGUACGACAAAGUCGCUUCCCUUGGCAGCAGACCGAUGACU
B13: Eterna 6063666 (Exclusion 4) (ssRNA)
RNA: UAUGUGUCAGGAUAUUGUUAAUUUAGUUGUUUGUAUUAGUUCGAGAAGGGACAUGAGGAUCACCCAUGUUGUUU
B14: Eterna 7681766 (Exclusion - Tryptophan A) (ssRNA)
RNA: UGUGAACAAAAGUAGAGUGGACCACUAUAGCGAGGACCGGUACGGCCGCCACUCGUAUAUAAAUUCAGUGAUGUUGAAAAGAGCU
B15: Eterna 6136258 (Same State NG 2) (ssRNA)
RNA: UAAUCUCAGAUAGGAUAUAUAGGAUAACUUAAGACCUAACAUGAGGAUCACCCAUGUGAUUAUUCGUAGAAGGAUCAUUGACCC
B16: Eterna 7684249 (Exclusion - Tryptophan B) (ssRNA)
RNA: UUUAUAAUGUCGGCCGCCACUGGAUUAAUAUUUGUAUAAUCUAGUUCUGAGUGAUGUUUAGAGUCCAGGACCGGGACAUUUGUUA
B17: Eterna 11920 (Sensor v3, turn-off variant 2) (ssRNA)
RNA: UUUAAACUUACAAUCUUCGCUGGCAUGCUUGUGCCAGCUACAUGAGGAUCACCCAUGUUUUUUGCUCGUCUUAUUCU
B18: Eterna 1282 (Exclusion - Tryptophan B) (ssRNA)
RNA: GGAUUGCGUUCGGCCGCCACUAGACUACAUUCCACGCCCGACCCGUUUUUAAGUGAUGUUUAAACUAGGACCGGGAACCGAUUUC
B19: Eterna 7623315 (Exclusion - Theophylline A) (ssRNA)
RNA: AUUAUCAUGGUCAUAUAUAUUUCGUCAGAUACCAGACUAGAUAUAGUCCCUUGGCAGCUGUUACAUGAGGAUCACCCAUGUUAUA

Legend:
[1] = tested on: Theophylline aptamer, Light-up construct (RNA, aptamer) GGGAACGUCUCCGAGUAGGAGACGAAGGGAGAGUGGCAGCUUACAACCUGAAGGACGGGUCCCCAGUAAUAAUGAUACCAGGAACAAAAGUUCCCCUUGGCAGCAUCUGGGUUGAGUAGAGUGUGAGCAGGAAGUGGGCUGUUGCUUUUCCAAGCUUAUCGAGUAGAUAAGCAAAAAGAAACAACAACAACAAC; assay: DMS chemical mapping; conditions: 5 mM MgCl2, 1x PBS, pH 6.1, 24 °C
[2] = tested on: Theophylline aptamer, RNA-MaP condition construct (RNA, aptamer) GGAAAGGCGAGGAUACCAGCGUUCGCGCCCUUGGCAGCCUCGCCAAAGAAACAACAACAACAAC; assay: DMS chemical mapping; conditions: 80 mM KCl, 4 mM MgCl2; 100 mM Tris-HCl, pH 7.5, 37 °C
[3] = target: T1, MS2 coat protein, dlFG mutant (Escherichia phage MS2, UniProt P03612, del68-81insG); assay: 4 mM Mg2+; no ligand; RNA-MaP array; 100 mM Tris-HCl pH 7.5, 80 mM KCl, 4 mM MgCl2, 0.1 mg/mL BSA, 1 mM DTT, 0.01 mg/mL yeast tRNA, 0.01% Tween-20; protein 1.5 nM to 3 uM; 37 C (Table S3); conditions: chain copies: 2; label: tethered by stalled RNA polymerase
[4] = target: T1, MS2 coat protein, dlFG mutant; assay: 4 mM Mg2+; FMN 200 uM; RNA-MaP array; 100 mM Tris-HCl pH 7.5, 80 mM KCl, 4 mM MgCl2, 0.1 mg/mL BSA, 1 mM DTT, 0.01 mg/mL yeast tRNA, 0.01% Tween-20; protein 1.5 nM to 3 uM; 37 C (Table S3); conditions: chain copies: 2; label: tethered by stalled RNA polymerase
[5] = target: T1, MS2 coat protein, dlFG mutant; assay: 4 mM Mg2+; L-tryptophan 2.4 mM; RNA-MaP array; 100 mM Tris-HCl pH 7.5, 80 mM KCl, 4 mM MgCl2, 0.1 mg/mL BSA, 1 mM DTT, 0.01 mg/mL yeast tRNA, 0.01% Tween-20; protein 1.5 nM to 3 uM; 37 C (Table S3); conditions: chain copies: 2; label: tethered by stalled RNA polymerase
[6] = target: T1, MS2 coat protein, dlFG mutant; assay: 4 mM Mg2+; miR-208a RNA 100 nM (AU…UUGU); RNA-MaP array; 100 mM Tris-HCl pH 7.5, 80 mM KCl, 4 mM MgCl2, 0.1 mg/mL BSA, 1 mM DTT, 0.01 mg/mL yeast tRNA, 0.01% Tween-20; protein 1.5 nM to 3 uM; 37 C (Table S3); conditions: chain copies: 2; label: tethered by stalled RNA polymerase
[7] = target: T1, MS2 coat protein, dlFG mutant; assay: 4 mM Mg2+; theophylline 2 mM; RNA-MaP array; 100 mM Tris-HCl pH 7.5, 80 mM KCl, 4 mM MgCl2, 0.1 mg/mL BSA, 1 mM DTT, 0.01 mg/mL yeast tRNA, 0.01% Tween-20; protein 1.5 nM to 3 uM; 37 C (Table S3); conditions: chain copies: 2; label: tethered by stalled RNA polymerase

Molecule	Kd [3]	further results
Cn1c(=O)c2[nH]cnc2n(C)c1=O		Kd [1]: 239.54 ± 161.15/-96.27 μM; Kd [2]: 13.11 ± 9.21/-4.86 μM
B1	607 nM	
B2	> 3000 nM	
B3	> 3000 nM	
B4		Kd [4]: 94 nM
B5	> 3000 nM	
B6	> 3000 nM	
B7		Kd [5]: 19.3 nM
B8		Kd [6]: 17.1 nM
B9		Kd [5]: 21 nM
B10	93.5 nM	
B11	> 3000 nM	
B12	> 3000 nM	
B13		Kd [4]: 31.1 nM
B14	> 3000 nM	
B15	162 nM	
B16	> 3000 nM	
B17		Kd [6]: 95 nM
B18	> 3000 nM	
B19		Kd [7]: 45.8 nM
